Measurements reported in US20230312755A1.

Assays:
human Sclerostin (human) [1] = target: human Sclerostin (human) (UniProt Q9BQB4); experiment: cell-based or functional assay
[2] = target: His-tagged human Sclerostin (NCBI reference No. NP_079513.1) (human) (UniProt Q9BQB4); experiment: ELISA, plate coated with His-tagged human Sclerostin
human Sclerostin (human) [3] = target: human Sclerostin (human) (UniProt Q9BQB4); experiment: BLI (Gator), antibody on anti-hFc biosensor, Sclerostin as analyte, 1:1 global fit

human Sclerostin (human), sequence (Q9BQB4 24-213 limits assumed): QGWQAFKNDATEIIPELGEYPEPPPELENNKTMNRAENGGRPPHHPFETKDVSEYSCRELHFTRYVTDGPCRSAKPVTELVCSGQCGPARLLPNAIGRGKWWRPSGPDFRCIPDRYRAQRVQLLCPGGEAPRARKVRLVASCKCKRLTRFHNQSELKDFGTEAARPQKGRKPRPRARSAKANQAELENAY
His-tagged human Sclerostin (NCBI reference No. NP_079513.1) (human), sequence (Q9BQB4 24-213 limits assumed): as above

B1: Romosozumab (antibody, INN chains, looked up, V domains shown)
VH: EVQLVQSGAEVKKPGASVKVSCKASGYTFTDYNMHWVRQAPGQGLEWMGEINPNSGGAGYNQKFKGRVTMTTDTSTSTAYMELRSLRSDDTAVYYCARLGYDDIYDDWYFDVWGQGTTVTVSS
VL: DIQMTQSPSSLSASVGDRVTITCRASQDISNYLNWYQQKPGKAPKLLIYYTSRLLSGVPSRFSGSGSGTDFTLTISSLQPEDFATYYCQQGDTLPYTFGGGTKVEIK
- EC50, Sclerostin-neutralisation activity in HEK293/TCF/LEF/Wnt1 cells (luciferase reporter) (human Sclerostin (human) [1]): 42.3 nM
- EC50 [2]: 0.11 nM
- Kd (human Sclerostin (human) [3]): 0.78 nM
- koff (human Sclerostin (human) [3]): 0.00028 s⁻¹
- kon (human Sclerostin (human) [3]): 360000 M⁻¹ s⁻¹
